Measurements taken from patent US6495314 (Scripps Research, dated 2002).

T1: Ac-CWAcp-PPPALPPKKR.amide, C3G-derived peptide designed for attachment to an affinity column (N-terminal acetyl; ε-aminocaproic acid (Acp, B) at position 3; C-terminal amide; on the column the Cys side chain is coupled to iodoacetyl agarose (Sulfolink))
T1 construct: also called Acetyl-CWAcp-C3G; Ac-CWBPPPALPPKKR.amide
T1 peptide: CWPPPALPPKKR

T2: control peptide Ac-CAcpYGGFL.amide (YGGFL = leucine enkephalin) (not fully specified (residue 1); also: Cys side chain coupled to Sulfolink agarose)
T2 construct: also called Ac-CBYGGFL.amide; Leucine-Enkephalin agarose column
T2 peptide: Ac-CYGGFL-NH2


Experiments:
[1] = target: T1, Ac-CWAcp-PPPALPPKKR.amide, C3G-derived …; experiment: 19-member array on C3G peptide affinity column, MALDI MS readout
[2] = target: T2, control peptide Ac-CAcpYGGFL.amide …; experiment: nine-member array on control peptide column, A280
Description: (§1) The column was then washed with 0.5 M NaCl buffer to remove nonspecific binding proteins from the column. Specifically bound protein analogues were then eluted with 1 M hydroxylamine bufffer. Amounts of eluted peptide were monitored by UV absorbance at 280 nm. This procedure was used for both the C3G peptide column and for the control column loaded with Ac-C-AcpYGGFL.amide.
(§2) Affinity chromatography of the arrays of protein analogues was carried out as follows. […] After incubation at room temperature for a period of 6–8 hours the column was washed with 0.5 M NaCl in 0.1 M sodium phosphate, pH 7.0 buffer (6×1 mL) to remove any non-specifically bound proteins. The first two 1 mL fractions were collected and immediately mixed with an equal volume of 1 M NH_2OH, 20 mM NH_4HCO_3, pH 5.5 buffer to cleave any thioester-containing protein analogues. […] Samples of the eluted fractions were monitored by UV absorbance at 280 nm. This procedure was used for both the C3G peptide column and for the control column loaded with Ac-C-Acp-YGGFL.amide. To accommodate MALDI analysis, both the 0.5M NaCl wash and 1 M NH_2OH fractions were desalted on a low pressure, disposable C-18 column, washed with HPLC buffer A and peptide fragments eluted with 1.5 mL 60% acetonitrile in water, 0.1% TFA.

[3] = target: T1, Ac-CWAcp-PPPALPPKKR.amide, C3G-derived …; experiment: Example 2: nine-member array on C3G peptide affinity column, MALDI MS readout
Description: as §1, §2

Binder | binding result [1] | binding result [2] | binding result [3]
c-Crk N-terminal SH3 domain (134-191) analogue, E^148E^149 replaced by Gly-[COS]-βAla (other, not fully specified; Gly-[COS]-βAla unit (-NH-CH2-CO-S-CH2-CH2-CO-) in place of E148-E149; backbone thioester, Positions count on murine c-Crk; X = -S-CH2CH2-CO- unit; Tested crude in a pooled array) AEYVRALFDFNGNDGXDLPFKKGDILRIRDKPEEQWWNAEDSEGKRGMIPVPYVEKYR | binds | – | –
c-Crk N-terminal SH3 domain (134-191) analogue, dipeptide DL (150-151) replaced by Gly-[COS]-βAla (other, not fully specified; Gly-[COS]-βAla unit (-NH-CH2-CO-S-CH2-CH2-CO-) in place of D150-L151; backbone thioester, Positions count on murine c-Crk; X = -S-CH2CH2-CO- unit; Tested crude in a pooled array) AEYVRALFDFNGNDEEGXPFKKGDILRIRDKPEEQWWNAEDSEGKRGMIPVPYVEKYR | no binding | – | –
c-Crk N-terminal SH3 domain (134-191) analogue, dipeptide KG (155-156) replaced by Gly-[COS]-βAla (other, not fully specified; Gly-[COS]-βAla unit (-NH-CH2-CO-S-CH2-CH2-CO-) in place of K155-G156; backbone thioester, It is one of the 19 dipeptide positions within c-Crk(146-165); Positions count on murine c-Crk; X = -S-CH2CH2-CO- unit; Tested crude in a pooled array) AEYVRALFDFNGNDEEDLPFKGXDILRIRDKPEEQWWNAEDSEGKRGMIPVPYVEKYR | no binding | – | –
c-Crk N-terminal SH3 domain (134-191) analogue, dipeptide GD (156-157) replaced by Gly-[COS]-βAla (other, not fully specified; Gly-[COS]-βAla unit (-NH-CH2-CO-S-CH2-CH2-CO-) in place of G156-D157; backbone thioester, G156 stays Gly; Positions count on murine c-Crk; X = -S-CH2CH2-CO- unit; also called Gly-SβAla analogue) AEYVRALFDFNGNDEEDLPFKKGXILRIRDKPEEQWWNAEDSEGKRGMIPVPYVEKYR | – | no binding | no binding
c-Crk N-terminal SH3 domain (134-191) analogue, dipeptide IL (158-159) replaced by Gly-[COS]-βAla (other, not fully specified; Gly-[COS]-βAla unit (-NH-CH2-CO-S-CH2-CH2-CO-) in place of I158-L159; backbone thioester, Positions count on murine c-Crk; X = -S-CH2CH2-CO- unit; also called Gly-SβAla analogue) AEYVRALFDFNGNDEEDLPFKKGDGXRIRDKPEEQWWNAEDSEGKRGMIPVPYVEKYR | no binding | no binding | –
c-Crk N-terminal SH3 domain (134-191) analogue, dipeptide DI (157-158) replaced by Gly-[COS]-βAla (other, not fully specified; Gly-[COS]-βAla unit (-NH-CH2-CO-S-CH2-CH2-CO-) in place of D157-I158; backbone thioester, Positions count on murine c-Crk; X = -S-CH2CH2-CO- unit; also called Gly-SβAla analogue) AEYVRALFDFNGNDEEDLPFKKGGXLRIRDKPEEQWWNAEDSEGKRGMIPVPYVEKYR | no binding | no binding | –
c-Crk N-terminal SH3 domain (134-191) analogue, I^161R^162 replaced by Gly-[COS]-βAla (other, not fully specified; Gly-[COS]-βAla unit (-NH-CH2-CO-S-CH2-CH2-CO-) in place of I161-R162; backbone thioester, Positions count on murine c-Crk; X = -S-CH2CH2-CO- unit; also called IR; Gly-SβAla analogue) AEYVRALFDFNGNDEEDLPFKKGDILRGXDKPEEQWWNAEDSEGKRGMIPVPYVEKYR | binds | no binding | –

The next lines start with the values.

binding result [1] | binding result [2] | binding result [3] | Binder
binds | no binding | – | c-Crk N-terminal SH3 domain (134-191) analogue, D^163K^164 replaced by Gly-[COS]-βAla (other, not fully specified; Gly-[COS]-βAla unit (-NH-CH2-CO-S-CH2-CH2-CO-) in place of D163-K164; backbone thioester, Positions count on murine c-Crk; X = -S-CH2CH2-CO- unit; also called DK; Gly-SβAla analogue) AEYVRALFDFNGNDEEDLPFKKGDILRIRGXPEEQWWNAEDSEGKRGMIPVPYVEKYR
no binding | – | – | c-Crk N-terminal SH3 domain (134-191) analogue, dipeptide ED (149-150) replaced by Gly-[COS]-βAla (other, not fully specified; Gly-[COS]-βAla unit (-NH-CH2-CO-S-CH2-CH2-CO-) in place of E149-D150; backbone thioester, Positions count on murine c-Crk; X = -S-CH2CH2-CO- unit; Tested crude in a pooled array) AEYVRALFDFNGNDEGXLPFKKGDILRIRDKPEEQWWNAEDSEGKRGMIPVPYVEKYR
binds | no binding | – | c-Crk N-terminal SH3 domain (134-191) analogue, K^164P^165 replaced by Gly-[COS]-βAla (other, not fully specified; Gly-[COS]-βAla unit (-NH-CH2-CO-S-CH2-CH2-CO-) in place of K164-P165; backbone thioester, Positions count on murine c-Crk; X = -S-CH2CH2-CO- unit; also called KP; Gly-SβAla analogue) AEYVRALFDFNGNDEEDLPFKKGDILRIRDGXEEQWWNAEDSEGKRGMIPVPYVEKYR
no binding | – | – | c-Crk N-terminal SH3 domain (134-191) analogue, dipeptide PF (152-153) replaced by Gly-[COS]-βAla (other, not fully specified; Gly-[COS]-βAla unit (-NH-CH2-CO-S-CH2-CH2-CO-) in place of P152-F153; backbone thioester, It is one of the 19 dipeptide positions within c-Crk(146-165); Positions count on murine c-Crk; X = -S-CH2CH2-CO- unit; Tested crude in a pooled array) AEYVRALFDFNGNDEEDLGXKKGDILRIRDKPEEQWWNAEDSEGKRGMIPVPYVEKYR
binds | – | – | c-Crk N-terminal SH3 domain (134-191) analogue, D^147E^148 replaced by Gly-[COS]-βAla (other, not fully specified; Gly-[COS]-βAla unit (-NH-CH2-CO-S-CH2-CH2-CO-) in place of D147-E148; backbone thioester, Positions count on murine c-Crk; X = -S-CH2CH2-CO- unit; Tested crude in a pooled array; also called DE) AEYVRALFDFNGNGXEDLPFKKGDILRIRDKPEEQWWNAEDSEGKRGMIPVPYVEKYR
no binding | – | – | c-Crk N-terminal SH3 domain (134-191) analogue, dipeptide FK (153-154) replaced by Gly-[COS]-βAla (other, not fully specified; Gly-[COS]-βAla unit (-NH-CH2-CO-S-CH2-CH2-CO-) in place of F153-K154; backbone thioester, It is one of the 19 dipeptide positions within c-Crk(146-165); Positions count on murine c-Crk; X = -S-CH2CH2-CO- unit; Tested crude in a pooled array) AEYVRALFDFNGNDEEDLPGXKGDILRIRDKPEEQWWNAEDSEGKRGMIPVPYVEKYR
binds | no binding | – | c-Crk N-terminal SH3 domain (134-191) analogue, R^162D^163 replaced by Gly-[COS]-βAla (other, not fully specified; Gly-[COS]-βAla unit (-NH-CH2-CO-S-CH2-CH2-CO-) in place of R162-D163; backbone thioester, Positions count on murine c-Crk; X = -S-CH2CH2-CO- unit; also called RD; Gly-SβAla analogue) AEYVRALFDFNGNDEEDLPFKKGDILRIGXKPEEQWWNAEDSEGKRGMIPVPYVEKYR
no binding | – | – | c-Crk N-terminal SH3 domain (134-191) analogue, dipeptide KK (154-155) replaced by Gly-[COS]-βAla (other, not fully specified; Gly-[COS]-βAla unit (-NH-CH2-CO-S-CH2-CH2-CO-) in place of K154-K155; backbone thioester, It is one of the 19 dipeptide positions within c-Crk(146-165); Positions count on murine c-Crk; X = -S-CH2CH2-CO- unit; Tested crude in a pooled array) AEYVRALFDFNGNDEEDLPFGXGDILRIRDKPEEQWWNAEDSEGKRGMIPVPYVEKYR
no binding | no binding | – | c-Crk N-terminal SH3 domain (134-191) analogue, dipeptide RI (160-161) replaced by Gly-[COS]-βAla (other, not fully specified; Gly-[COS]-βAla unit (-NH-CH2-CO-S-CH2-CH2-CO-) in place of R160-I161; backbone thioester, Positions count on murine c-Crk; X = -S-CH2CH2-CO- unit; also called Gly-SβAla analogue) AEYVRALFDFNGNDEEDLPFKKGDILGXRDKPEEQWWNAEDSEGKRGMIPVPYVEKYR
